# Results taken from a protein production outcome set (Wang et al. 2014).
# Assay: label from the status in PepcDB records
row,Sequence,protein production
1,MTSGVAPLPGIVSTLSAAAEAVSEALIALDADGGILVVNGAAERVFDRRRDDLIGRSLDVVFGGDFAEAMASNLSAKVDALPPAPGGGRLLRRPGLPPLALHAGFSVTGDHGRPLATIVIRDLSPRADSWLETEERLGGFAASMPGIIFQRVAHRDGSLSYPFLSSGVHAVLGYHPAEMSVALDGCLNAIHWADRESYLRRLRQSAQTLAICSEEFRAITREGAVKWLSGASQPRAMANGDILWDGVLVDVTERKRAELWLEMIMDRAADGIVTINEQGVIESANAAVGTFFGYADRGELIGRRVEILMAEADRRQHTRHMLRYRETGDGALIGAGPRELTGRRRDGTTFALELALSEVRTEGRRIFIAVIRDITQRKETEGALAATRARLQTIADNVPGLVFQRELTAEGVLRFLFVSNGVHEVLGITPEALLADGELFLGAMDPDVRAAFRETLRQSASRLEPMEEDIKLRGRDGEERWLRGWSRPSRREDGSVVWDGVTLDVTDRKRAEDKLTFLAYYDPLTGLGNRSLFIDRFDRARRFAESIQAWVAVLSIGLDRFGMVNATIGHTMGDKVLIAVTRRLQQSLEAGSIVCRAGGDRFLVLLTGLTDRADLREVVATIQDAFVPPIEVEGQQFDIGLTIGGALHPEDGREAETLIMHADAALHRAKGGGGAFQMFTPEMGARAAHLLTIQHKLRRGLERHEFVAYFQPQVDLRSGLITGCEALARWNSPEDGLVPPGKFIGVAEEYGLIDAICGQVLDDSCRWLSTWRARGLPQVPVAVNISGRQFQNARQLVAMVDQALRQSGVDPRLLELELTESSAMSDPENAIAVVNLLRERGVSCAIDDFGTGYSSLSVLKRFPIGKLKIDRSFVMDVTTDPNDAAIVQAIIAMAHALNLRVVAEGVETLDHLAFLREVHCDAVQGFLFARPLPGEDMALMLAGGPPQPNPR,failed
2,MTSHTLTQGGRTTATIALLLAMLLWSSSFIAMKIALTGFDPMVMIFGRMAIASVIFIAVWRRNFSGVRYRAGDWKLLGFMTMCEPCLYFVFEAYALEYTSASQAGMIVAMMPLSVAVAARFVLKEHMARSAWAGFCLAIAGVVWLSLGGQVTENAPNPMLGNALEVCAMLTATGYVISAKRLSSTYPPLFITAVQSLAGFVFFLPVLALPGVTLPTSLPLTPTLAVLYLGVCITLGAYGLYNYGVSRLPAGQAASYINLIPVLTLIMGRVVLGDELSPSQYLASLLVLAGVVLSQRRAAA,failed
3,MTSKSEWSNARRIVIILADVLLYNLSIILGFMVKFGREIPSFNFVAYEKSAIYISIFFIFLNLLLGAYIFYNRKISDIIFVTVIGQILMTLTIMIVTFAGRWFTFPRSVLGYSFIIGIIVLSLWRILVYYLYLKVSNERKVVLLGKENQVMRSIQNFMSDKNNKHKVTSVVVSNYYENLKKIIDEIDIVYISSNVDENEKVKLYQLIVKHKKKIFLDTSFENLIMLKPNMMNFEDESIIEVSNFEIQPEENFIKRLFDILVSVCLFVITSPLMLIAAILVKATSPGPVIYKQTRITLDQREFSILKFRTMSATAEAKSGPVLSTSNDSRVTTVGKYLRALRIDELPQLINVIRGDMSIVGPRPERPFFVDQFNQENPNYYLRHNVRAGITGYAQVYGKYASDYNSKLNFDLLYIKNYSLLLDMKILLQTIKILFDKVSSRGLDESEEREELTMDYCKENAIRIYR,failed
4,MTSLNVLVAVCMAYVILLFGVAFAADRLSSTGRTTWLRSPLVYTLSLSIYCTAWTFYGAVGYAARSGLEFVTIYLGPTLVMIGWWWGLRKLVRVGRSQRVTSIADLISSRYGKSNTLAVCVTLLAVIGVTPYIALQLQSITLSFDIFAEADPVSRPGEGSSAFWVACGLAVFAILFGTRNLDANERHHGVVTAVAIEAVVKLVALLAVGVFVVWGIAGGLGDTLARIDASEIGVWQVDHGRWATITFLAAAAFVCLPRMFQVMVVENDDERHLRTAAWAFPLYLMLMSLFVVPIAVVGLELMPEGANPDLFVLTIPLAEGQETLAMLSFLGGFSSATSMVIVAAMALSTMVSNHIVMPIWLNAQGSGASVSGDVRSVVLYARRVSIAVILALGYFYYRLSGGGAALASIGLIAFAGIAQILPALVGGLFWRGATRTGALVGLTVGFVLWLYTLLLPGMGAGVIAPQVMEHGLFGLSWLRPQALFGIAGMDPMVHSVMWSLSLNTAAFCIASLLSFPSPLERLQGAQFVNVFDHSAGPRGWTGSVAQSEDLMIMSQRIMGAREAQEFFQSEAMAQGSRAYLPEPTPAFLERLERELSGSVGAATAHAMIGQIVGGSSVSVEDLLAVADESAQLLEYSSRLEAKSAELSRTARKLREANEKLTQISLQKDAFLSQISHELRTPMTSIRAFSEILRDTDGLAPVDKTRYAAIIHDEALRLTRLLDDLLDLSVLENGQVTLNMGQGRLVDVLDRAMATALTGTDRPLRVRRHRGAERIVLRTDLDRLSQVFINLITNAQKYCDAADPELSVTVHDVGGRIVVDLIDNGSGIPRDARKMVFEKFARVGAEKAGGAGLGLAICREIMQRLGGDISYLSGQEGGAFRVSLPVGMEIAAQ,failed
5,MTSLPTPIIGLIVAVFVLVWLVLRTRVHALIAMLAAACIAGLLGGMGIDKTLSVITSGFGTTLGSIGLVIGLGVMMGRLLEVSGAAERIAWSFIKWLGKRREEWALAITGYIVSIPIFVDSAFVILYPVAKALAKSGKRSLLTLGVALAGGLAVTHHTVPPTPGPLGVAGIFNVDIGAMLLTGMALAVPCVIGIVFYAQWLDKRYPDFVPRTLNADEVNAALEQYNKEKEQKDLPSLTLSLLPIVVPIVLIFLKAICSTLATIEGWSGLATHPVVQAINFVGSPVIALAISVLLAVYTLVPRMDKHTTAERLEEGLQSAGIILLVTGAGGALGAILRDSGAGQQLAEQVANLPISPILIPFIVATLVRLIQGSGTVAMITAASISAPILAQIPGINMLLAAQAATMGSLFFGYFNDSLFWVVNRMMGVSDVKQQMVVWSVPTTIAWAIGGTGVALINLLFGSGGSWLDPLLPIVVLAAIMLWVRWQAQGIKDKLVVKD,failed
6,MTSLTQRSSGLVQRRTEASRNAADKERAAGGGAGSSEDDAQSRRDEQDDDDKGDSKETRLTLMEEVLLLGLKDREGYTSFWNDCISSGLRGCMLIELALRGRLQLEACGMRRKSLLTRKVICKSDAPTGDVLLDEALKHVKETQPPETVQNWIELLSGETWNPLKLHYQLRNVRERLAKNLVEKGVLTTEKQNFLLFDMTTHPLTNNNIKQRLIKKVQEAVLDKWVNDPHRMDRRLLALIYLAHASDVLENAFAPLLDEQYDLATKRVRQLLDLDPEVECLKANTNEVLWAVVAAFTK,failed
7,MTSPSPDQVIRQEILALSAYHVPPAKDMVKLDAMENPYRLPPFLCEEISRIAADTSINRYPDPHAAALKEVLSTTLSVPAGMEIMLGNGSDEIIQIIMLAAAKPEAKLLTIEPGFAMFKMIATFANMQYIGIPLKPDFSLDIDRMLAAIERHQPSVIFLAYPNNPSGNLFDTSALEKIIEISPGLVVIDEAYHPFAGKSFIGRLADYPNLLVMRTLSKLGLAGLRLGLLAGRPEWLSHLEKLRLPYNVNVITQLVATKIMQHYDVLQQQADAIRQTRTRLRTFLENLNGIEVFPSNANFILFRLDGASQIFRLLQQHGILVKNLDNSHPLLKNCLRVTVGTPEENDRFCNTLQDLIAGN,failed
8,MTSQVANPPVQSIRLLFSALLLVMLLSALDQTIVSTALPTIVGELGGLDKLSWVVTAYILSSTIAVPLYGKFGDLFGRKIVLQVAIGLFLVGSALCGLAQNMTQLVLMRGLQGLGGGGLMVISMAAVADVIPPANRGRYQGLFGGVFGLATVIGPLIGGFLVQHASWRWIFYINLPLGLFALLVIGAVFHSSNKRSQHQIDWLGAIYLSMALLCIILFTSEGGSVHAWNDPQLWCILAFGIVGIIGFIYEERMAAEPIIPLALFRNRSFLLCSLIGFVIGMSLFGSVTFLPLYLQVVKEATPTEAGLQLIPLMGGLLLTSIISGRIISRTGKYRLFPILGTLLGVTGMVLLTRITIHSPLWQLYLFTGVLGAGLGLVMQVLVLAVQNAMPAQMYGVATSGVTLFRSIGGSIGVALFGAVFTHVLQSNLQQLLPEGAVLPPGMNPVAVQHLPADIRLDYLDAFGAAIHAAFLMAAGIMAVAFVLSWLLKEAPLKTATH,failed
9,MTSSSPPAIPADARRQHAERTTLVSAAVNCALSAGQIAAGLWSHSQGLVADGLHTLSDLIADGIVFIANRNSHKGPDEDHQYGHARYENAASLGLGLLLMAAGAGMIWSALASLSAPHGAAPVHGLALWVALAALAAKEGLFRYMLAVARRIGSRMLVANAWHARSDAVSSLVAAVGVAGNLMGFRWLDPVAACVVGAMIGRVGIRFGWEALNDLMDRALPPAQVQAIRASLAATPGVINVHDLRTRVTGDQALVDAHIEVDPRVSVSEGHAIAVRARANVLAAHTAMAVLDVQLHVDPRERVYTDPLPLPDRDALCAVLAQALPPGTPLDARHCLLHYVEGGVEVDLILPPSLADHAAPVAETVRARWHGRVRLRALTAASGATARGPVRP,failed
10,MTSTASSTDIRQGQAADEQWPSWQQRLRRFGYTAPPRTDVRDRLVPPFSEPSPRLWAAIGLRQEVADRVTRWSAWGGPLLVTLLAGLLRFWNLGSPKAVIFDETYYAKDAWALIHNGYEANWAKDANDLILQGNGHVAIPTDPAYVVHPPVGKYVIGLGEWLFGFTPFGWRFMTALLGTLSVLLLCRIGRRLFRSTFLGCLAGALMAVDGLHFVMSRTSLLDGVLMFFVLAAFGCLVVDRDRARARLAAALPADADGVVRPDAHTAETTRLGPRPWRWLAGLMLGLALGTKWNALYVMAAFCVMAVLWDVGSRRVAGARRPYAAVLRRDTGITFLATVPVAVATYLVSWTGWILSPANGSGGYFRNWAATDGKGGHWTWLPDWLRSLWHYEHEVYEFHVGLSSPHQYQSNPWSWLVAGRPVSYFYESPSPGKDGCPADAGEKCAREVLALGTPLLWWAACFAVLYVLWRWLFRRDWRAGAIACGIAAGWLPWMMYQERTIFYFYAVVFVPFLCLAVAMMIGAILGPPGSGERRRVVGAAGAGVLVLLIAWNFIYFWPLYTGTAIPIDDWRSRMWLDTWV,failed
11,MTTALRQPTLSSQCLAEFLGTALLIFFGTGCVAALKVAGASFGLWEISIIWGVGVSMAIYLTAGISGAHLNPAVSIALTLFAGFDKRKLPFYMLAQVCGAFCGAALVYTLYSNLFFDFEQAHAMLRGSEGSLELASVFSTYPHPSLSTSQAFLVEVVITAILMAVIMALTDDNNGLPRGAMAPLLIGLLIAVIGSAMGPLTGFAMNPARDFGPKLMTFLAGWGEIAFTGGRDIPYFLVPVFAPILGACLGAASYRGLIARNLPMAPAATPETNDIRQGDTQAN,failed
12,MTTASGPGDLPAGSPVSSLHEALDQCMTALDLFLTNQFSEALSYLKPRTKESMYHSLTYATILEMQAMMTFDPQDILLAGNMMKEAQSLCQRHRRKSSMTDSFSNLVHRPTIDQFTEEEIHAEVCYAECLLQRAALTFLQDENMVSFIKGGIKVRNSYQTYKELDSLVQSSQYSKGESHRHFEGGVKLGVGAFNLTLSMLPTRILRLLEFVGFSGNKDYGLLQLEEGATGHSFRAVLCVMLLLCYHTFLTFVLGTGNVNIEEAEKLLKPYLNRYPKGAIFLFFAGRIEAIKGNIDAAVRRFEECCEAQQHWKQFHHMCYWELMWCFTYKGQWKMAYFYADLLSKENSWSKATYIYMKAAYLSMFGKEDYKPFGDNEVELFRAVPGLKLKIAGKSLPTEKFAIRKSRRYLSPNPISLPIPALEMMYIWNGYAVIGKQPTLTDGMLEVITKAEEMLAMGPENEYSADDDCLVKLLKGLCLKYLGRIQEAEENFRSISANEKKIKYDHYLIPNALLELALLFMEQGRNEEAIKLLESAKQNYKNYSMESRTHLRIQAATLQARSSLEDGNRSLVSSVSL,failed
13,MTTATAGLAVELKQSTAQAHEKAEHSTFMSDLLKGRLGVAEFTRLQEQAWLFYTALEQAVDAVRASGFAESLLDPALNRAEVLARDLDKLNGSSEWRSRITASPAVIDYVNRLEEIRDNVDGPALVAHHYVRYLGDLSGGQVIARMMQRHYGVDPEALGFYHFEGIAKLKVYKDEYREKLNNLELSDEQREHLLKEATDAFVFNHQVFADLGKGL,not failed
14,MTTDRPLSPPLDHAWIAARIPHSGAMCLLDQVVTWDDTHIRCTTTSHRAPDNPLRAHGRLAAVCGIEYAAQAMAVHGAILGNAQDRPRAGFLASVRSVEAHVERLDTIEAPLTIEAERIGGDGNNVLYRFSVRCGERVLLTGRAAVVLDAAGLGLPDAGALAKANAQAR,failed
